Reference: paper PMC2810336, “Mutational Analysis of Highly Conserved Residues in the Phage PhiC31 Integrase Reveals Key Amino Acids Necessary for the DNA Recombination”
Substitutions are numbered along the chain they refer to.

Experiments:
phiC31 integrase WT = target: T1, phiC31 integrase WT (Streptomyces phage phiC31, UniProt Q38194 1-613); test: EMSA; complexes I, II, III; 50 ng/ul Poly (competitor (so in the source)), 0.05% NP-40, 50 mM KCl, 5 mM MgCl2, 10 mM EDTA, 20 ul, 0.4 ng (16 fmol) probe; 30 min at room temperature (Methods) or 30 C; pH not stated; synapsis 2 h at 30 C; conditions: protein: recombinant; tags: C-terminal His (pET22b); chain copies: 2; label: biotin, double-strand end-labeled; blunt
T1 sequence: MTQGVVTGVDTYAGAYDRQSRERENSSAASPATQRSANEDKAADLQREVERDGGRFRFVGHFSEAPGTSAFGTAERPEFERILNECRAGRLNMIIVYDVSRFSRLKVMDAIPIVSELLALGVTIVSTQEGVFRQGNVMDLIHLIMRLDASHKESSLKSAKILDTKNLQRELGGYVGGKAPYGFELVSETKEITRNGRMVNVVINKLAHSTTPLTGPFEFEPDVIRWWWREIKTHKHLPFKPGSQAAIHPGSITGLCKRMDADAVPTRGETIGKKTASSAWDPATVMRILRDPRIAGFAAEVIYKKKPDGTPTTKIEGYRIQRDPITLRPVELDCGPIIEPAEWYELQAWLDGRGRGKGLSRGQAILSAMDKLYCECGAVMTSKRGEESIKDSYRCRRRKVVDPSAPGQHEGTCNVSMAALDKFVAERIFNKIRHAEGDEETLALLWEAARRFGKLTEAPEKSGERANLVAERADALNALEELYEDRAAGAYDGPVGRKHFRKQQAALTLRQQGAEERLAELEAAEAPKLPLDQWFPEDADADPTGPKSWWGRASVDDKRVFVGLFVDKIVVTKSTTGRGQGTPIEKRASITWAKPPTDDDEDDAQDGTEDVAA

phiC31 integrase C374A = target: T2, phiC31 integrase C374A (Streptomyces phage phiC31, UniProt Q38194 1-613, C374A); test: EMSA; 50 ng/ul Poly (competitor (so in the source)), 0.05% NP-40, 50 mM KCl, 5 mM MgCl2, 10 mM EDTA, 20 ul, 0.4 ng (16 fmol) probe; 30 min at room temperature (Methods) or 30 C; pH not stated; synapsis 2 h at 30 C; conditions: protein: recombinant; tags: C-terminal His; chain copies: 2; label: biotin, double-strand end-labeled; blunt
T2 sequence: T1 sequence with C374A

[1] = target: T3, phiC31 integrase G182A/F183A (Streptomyces phage phiC31, UniProt Q38194 1-613, G182A;F183A); test: as above; conditions: protein: recombinant; tags: C-terminal His; chain copies: 2; label: biotin, double-strand end-labeled; blunt
T3 sequence: T1 sequence with G182A, F183A

B1: attP 50 bp (dsDNA)
DNA 1: GTAGTGCCCCAACTGGGGTAACCTTTGAGTTCTCTCAGTTGGGGGCGTAG
DNA 2: CTACGCCCCCAACTGAGAGAACTCAAAGGTTACCCCAGTTGGGGCACTAC
**Q.** Does B1 bind (phiC31 integrase WT)?
**A.** binds

**Q.** Does B1 bind (phiC31 integrase C374A)?
**A.** no binding

**Q.** Does B1 bind [1]?
**A.** no binding
